According to patent US20190112361A1 (Genentech, published 2019):
No end group written: not given here.

T1: Tau fragment 1-15 (human, UniProt P10636-8 1-15)
T1 construct: range 1-15
T1 peptide (looked up): MAEPRQEFEVMEDHA

T2: Tau fragment 37-51 (human, UniProt P10636-8 37-51)
T2 construct: range 37-51
T2 peptide (looked up): GDTDAGLKESPLQTP

T3: Tau fragment 28-42 (human, UniProt P10636-8 28-42)
T3 construct: range 28-42
T3 peptide (looked up): GYTMHQDQEGDTDAG

T4: Tau fragment 19-33 (human, UniProt P10636-8 19-33)
T4 construct: range 19-33
T4 peptide (looked up): GLGDRKDQGGYTMHQ

T5: MAPT(10-24) (human, also: biotinylated)
T5 construct: also called Tau fragment 10-24
T5 peptide: VMEDHAGTYGLGDRK

T6: MAPT(2-24) (human, biotinylated)
T6 construct: also called Tau fragment 2-24
T6 peptide: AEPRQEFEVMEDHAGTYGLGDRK

T7: MAPT(2-34) (human, biotinylated)
T7 construct: also called Tau fragment 2-34
T7 peptide: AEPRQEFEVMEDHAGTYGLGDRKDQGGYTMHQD


Experiments:
Tau fragment 1-15 = molecular target: T1, Tau fragment 1-15; test: ELISA on Tau peptides (Example 8)
Tau fragment 37-51 = molecular target: T2, Tau fragment 37-51; test: ELISA on Tau peptides (Example 8)
Tau fragment 28-42 = molecular target: T3, Tau fragment 28-42; test: ELISA on Tau peptides (Example 8)
Tau fragment 19-33 = molecular target: T4, Tau fragment 19-33; test: ELISA on Tau peptides (Example 8)
Oligomers = molecular target: T8, Oligomers (In vitro oligomerised (arachidonic acid and heparin) homo-oligomer of one polypeptide; one copy of the chain is given. Biotin sits on the AVI-tag, which is left out.); test: capture ELISA, antibody on anti-IgG plate, biotinylated oligomeric Tau titrated
T8 construct: also called oligoTau; oligomeric Tau; not shown: AVI-tag (site-specifically biotinylated) and any purification tag or linker of the construct
Description: For the oligoTau and monoTau capture ELISAs, antibodies contained in serum-free sterile hybridoma supernatants were immobilized on an anti-IgG coated plate at 500-fold dilution, followed by the incubation of oligoTau or monoTau, both with site-specific biotinylation via an AVI-tag. The target incubations started at 5 μg/mL and then were diluted 8- or 16-fold. Streptavidin-HRP and ABTS substrate was used for signal quantitation in a plate reader (Tecan, Switzerland). Results are expressed as O.D.

MAPT(10-24) = molecular target: T5, MAPT(10-24); test: ELISA on Tau peptides (Example 8)
MAPT(2-24) = molecular target: T6, MAPT(2-24); test: ELISA, biotinylated peptide on Neutravidin plate, IgG titrated
Description: (§1) Following a comparison of 37D3-H9 binding to biotinylated Tau monomer and biotinylated peptide (MAPT_10-24), binding of 37D3-H9 to additional biotinylated peptides was also assessed. Nunc maxisorp 96-well microplates were coated at 4° C. for >12 hours with Neutravidin diluted to 2 μg/ml in 50 mM Sodium Carbonate Buffer, pH 9.6. All subsequent incubations were performed at room temperature. After coating, plates were blocked with Superblock™ (PBS) Blocking Buffer (Thermo Fisher Scientific) for two hours then washed thoroughly with PBS, 0.05% Polysorbate 20. Wells were then exposed to biotinylated Tau peptides (Table 20) or Avi-tag biotinylated Tau monomer at 1 μg/ml for one hour and washed as previously. Peptides were synthesized using standard solid-phase Fmoc chemistry (see, e.g., Fmoc solid phase peptide synthesis: A practical approach; Chan, W. C., White, P. D., Eds.; Oxford University Press: New York, 2000). […] Wells were washed as previously and bound antibody detected with peroxidase-conjugated secondary antibody (Invitrogen/Life Technologies) diluted 1/1000 in Superblock™ Blocking Buffer (Rabbit anti-Mouse IgG or Goat Anti-Human IgG (H+L) respectively). […] Reactions were stopped by addition of 1M Phosphoric Acid and absorbance at 450 nm was measured with a SpectraMax M2 platereader.

MAPT(2-34) = molecular target: T7, MAPT(2-34); test: as above
Description: as §1

[1] = molecular target: T9, human Tau monomer (recombinant 2N4R isoform, amino acids 2-441) (human, UniProt P10636-8 2-441); test: ELISA, Avi-tag biotinylated Tau monomer on Neutravidin plate, IgG titrated
T9 construct: range 2-441; also called monomeric human Tau; monomeric Tau
Description: as §1

Row | binding result (Oligomers) | Binder | binding result (Tau fragment 1-15) | binding result (Tau fragment 37-51) | binding result (Tau fragment 28-42) | binding result (Tau fragment 19-33) | binding result (MAPT(10-24)) | also measured
1 | – | 19H6-F7 (antibody, mouse IgG2a, V domains shown) VH: EVQLVESGGDLVKPGGSLKLSCAASGFTFSSYGMSWVRQTPDKRLEWVATISSGGTYTYYPDSVKGRFTISRDNAKNTLYLQMSSLKSEDTAMYYCAPSYDGAMDYWGQGTSVTVSS VL: DVLMTQTPLSLPVSLGDQASISCRSSQSIVHSNGNTYLEWYLQKPGQSPKLLIYKVSNRFSGVPDRFSGSGSGTDFTLKISRVEAEDLGVYYCFQGSLVPWTFGGGTKLEIK | no binding (tested: not shown on the sheet) | no binding (tested: not shown on the sheet) | no binding (tested: not shown on the sheet) | no binding (tested: not shown on the sheet) | – | –
2 | binds | 19F8-B1 (antibody, V domains shown, hybridoma supernatant) VH: EVQLQQSGPELVKPGASVKMSCKASGYTFTDYYMKWVKQSHGKSLEWIGDLNPNNGGTLYNQKFKGQATLTVDKSSSTAYMQFNSLTSEDSAVYYCARSAGYGDSFAYWGQGTLVTVSA VL: DVLMTQTPLSLPVSLGDQASISCRSSQNIVHSNGNTYLEWYLQKPGQSPKLLIYKVSNRFSGVPDRFSGSGSGTDFTLKISRVEAEDLGIYFCFQGSHVPPTFGGGTKLEIK | – | – | – | – | – | –
3 | – | 54C1-H11 (antibody, mouse IgG2a, V domains shown) VH: EVQLVESGGDLVKPGGSLKVSCVASGFTFRSYGMSWVRQTPDKRLDWVATISSGGNYTYYPDSVKGRFTISRDNAKNTLYLQMSSLKSEDTAMYYCASSYSGAMDYWGQGTSVTVSS VL: DTVMTQSPLSLPVSLGDQASISCRSSQSIVHSNGNTYLEWYLQKPGQSPKLLIYTVSNRFSGVPDRFSGSGSGTDFTLKISRVEAEDLGVYYCFQGSHVPWTFGGGTKLEIK | no binding (tested: not shown on the sheet) | no binding (tested: not shown on the sheet) | no binding (tested: not shown on the sheet) | no binding (tested: not shown on the sheet) | – | –
4 | – | 3A4-H4 (antibody, mouse IgG2a, V domains shown) VH: EVQLVESGGDLVKPGGSLKLSCAASGFTFSSYGMSWVRQTPDKRLEWVATISSGGTYTYYPDSVKGRFTISRDNAKNTLYLQMSSLKSEDTAMYFCATSYDGAMDYWGQGTSVTVSS VL: DVLMTQTPLSLPVSLGDQASISCRSSQNIVHSNGNTYLEWYLQKPGQSPKLLIYKVSNRFSGVPDRFSGSGSGTDFTLKISRVEAEDLGVYYCFQGTLVPWTFGGGTKLEIK | no binding (tested: not shown on the sheet) | no binding (tested: not shown on the sheet) | no binding (tested: not shown on the sheet) | no binding (tested: not shown on the sheet) | binds | –
5 | – | 123E9-A1 (antibody, mouse IgG2a, V domains shown) VH: EVQLQQSGPELVKPGASVKMSCKASGYTFTDYYMKWVKQSHGKSLEWIGDIDPNNGGTSYNQKFKGKATLTVDKSSSTAYMQLNSLTSEDSAVYYCARSAGFGDSFSFWGLGTLVTVSA VL: DVLMTQTPLSLPVSLGDQASISCRSSQSIVHSNGNTYLEWYLQKPGQSPKLLIYKVSNRFSGVPDRFSGSGSGTDFTLKISRVEAEDLGFYYCFQGSHVPPTFGGGTKLEIK | no binding (tested: not shown on the sheet) | no binding (tested: not shown on the sheet) | – | – | no binding (tested: not shown on the sheet) | –
6 | binds | 11E10-B8 (antibody, mouse IgG2a, V domains shown) VH: EVQLVESGGDLVKPGGSLKLSCAASGFTFRSYGMSWVRQTPDKRLEWVATISGGGSYTYYPDSVKGRFTISRDNAKNTLYLQMSSLKSEDTAMYYCAVSYDGAMDYWGQGTSVTVSS VL: DVLMTQTPLSLPVSLGDQASISCRSSQSIVHSNGNTYLEWYLQKPGQSPKLLIYKVSNRFSGVPDRFSGSGSGTDFTLKISRVEAEDLGLYYCFQGSHVPWTFGGGTKLEIK | – | – | – | – | – | –
7 | – | 37D3-H9 (antibody, mouse IgG2a, V domains shown, also called 37D3-H9 mIgG2a; 37D3-H9 IgG) VH: EVQLVESGGDLAKPGGSLKLSCTASGLIFRSYGMSWVRQTPDKRLEWVATINSGGTYTYYPDSVKGRFTISRDNAKNTLYLQMSSLKSEDTAMYYCANSYSGAMDYWGQGTSVTVSS VL: DDLLTQTPLSLPVSLGDPASISCRSSQSIVHSNGNTYFEWYLQKPGQSPKLLIYKVSNRFSGVPDRFSGSGSGTDFTLKISRVEAEDLGVYYCFQGSLVPWTFGGGTKLEIK | no binding (tested: not shown on the sheet) | no binding (tested: not shown on the sheet) | no binding (tested: not shown on the sheet) | no binding (tested: not shown on the sheet) | – | EC50 (read off the curve) (MAPT(2-24)): ~0.2 nM; EC50 (read off the curve) (MAPT(2-34)): ~0.2 nM; EC50 (read off the curve) [1]: ~0.1 nM
8 | binds | 26C1-C8 (antibody, V domains shown, hybridoma supernatant) VH: EVHLQQSGAELVRSGASVKLSCTASGFNIKDYYMYWVKQRPEQGLEWIGWIDPENGDTEYFPKFQGKATMTADTSSKTAYLQLSSLTSEDTAVYYCNAWRARATNSALDYWGQGTSVTVSS VL: not shown | – | – | – | – | – | –
9 | – | 89F4-A1 (antibody, mouse IgG2a, V domains shown) VH: EVQLVESGGGLVQPKGSLKLSCAASGFTFNTYAMNWVRQAPGKGLEWVARIRSKSNNYAAYFADSVKDRFTISRDDSQTMLYLQMNNLKSEDTAMYYCVSGGNYVPFAYWGQGTLVTVSA VL: NIMMTQSPSSLAVSAGEKVTMSCKSSQSVFYSSEQRNYLAWYQQKPGQSPKLLISWASTRESGVPDRFTGSGSGTDFTLTISSVQGEDLAVYYCHQYLSSFTFGSGTKLEIK | no binding (tested: not shown on the sheet) | – | – | no binding (tested: not shown on the sheet) | no binding (tested: not shown on the sheet) | –
10 | – | 94B2-C1 (antibody, mouse IgG2a, V domains shown) VH: EVQLQQSGPELVKPGASMKISCKASGYSLTGYTMNWVKQSHGKNLEWIGLISPYNGVTSYNQKFKGKATLTVDKSSNTAYMELLSLTFEDSAVYYCARQGAYWGQGTLVTVSA VL: not shown | – | no binding (tested: not shown on the sheet) | no binding (tested: not shown on the sheet) | – | – | –
